Data as given in paper doi:10.1101/2024.10.10.617623, “Deep mutational scanning identifies variants of Cas1 and Cas2 that increase spacer acquisition in type II-A CRISPR-Cas systems” (bioRxiv, 2024).
Residue numbers refer to the chain shown, from its start.

Assays:
[1] = target: T1, Streptococcus pyogenes type II-A Cas1 (wild type) (Streptococcus pyogenes, UniProt Q99ZW1 1-289); experiment: SEC; analytical SEC on Superdex 200 Increase 10/300 GL in SEC buffer (20 mM HEPES pH 7.5, 500 mM NaCl, 5% v/v glycerol, 5 mM DTT) at 4 °C; Cas1 variant 15.0 uM (2 equiv.) mixed with Cas2 7.5 uM, incubated 1 h at 4 °C before injection; fractions on SDS-PAGE, Coomassie; settings: both partners purified
T1 construct: Cas1 of the Streptococcus pyogenes (SF370) type II-A CRISPR-Cas system; I surmise that one is the wild type; also called wt; source: E. coli Rosetta 2(DE3) BL21, purified (Ni-NTA, SUMO protease, HiTrap Heparin, Superdex 200)
T1 sequence (looked up): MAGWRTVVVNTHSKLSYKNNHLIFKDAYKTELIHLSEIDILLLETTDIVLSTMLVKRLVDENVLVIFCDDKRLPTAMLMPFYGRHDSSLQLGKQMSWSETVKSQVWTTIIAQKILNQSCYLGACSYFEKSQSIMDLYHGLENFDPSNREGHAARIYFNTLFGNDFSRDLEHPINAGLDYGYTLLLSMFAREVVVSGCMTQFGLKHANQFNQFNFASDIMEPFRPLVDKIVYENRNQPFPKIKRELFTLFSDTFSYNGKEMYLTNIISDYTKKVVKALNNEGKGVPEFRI

[2] = target: T2, Streptococcus pyogenes type II-A Cas1 R5A (Streptococcus pyogenes, UniProt Q99ZW1 1-289, R5A); experiment: as above; settings: both partners purified
T2 construct: Cas1 of the Streptococcus pyogenes (SF370) type II-A CRISPR-Cas system with R5A; source: E. coli Rosetta 2(DE3) BL21, purified (Ni-NTA, SUMO protease, HiTrap Heparin, Superdex 200)
T2 sequence (looked up): T1 sequence (looked up) with R5A

binding result [1]: binds
binding result [2]: binds
B1: Streptococcus pyogenes type II-A Cas2 (natural protein, UniProt Q99ZW0 1-113, looked up)
chain: MSYRYMRMILMFDMPTDTAEERKAYRKFRKFLLSEGFIMHQFSIYSKLLLNNTANNAMIGRLREHNPNKGNITLLTVTEKQFARMIYLHGERNNCIANSDERLVFLGEAFDES
notes: Cas2 of the Streptococcus pyogenes (SF370) type II-A CRISPR-Cas system; source: E. coli Rosetta 2(DE3) BL21, purified (Ni-NTA, SUMO protease, HiTrap Heparin, Superdex 200)
